Source: article PMC9486540

Biological target: C5b6 (UniProt P13671)
Assay: BLI; as a1, but 100nM C7 pre-incubated with anti-C7 mAb TPP1653 (200nM or 2nM) before dipping the C5b6 sensors, then C8 and C9

“human complement C7 (from UniProt P10643 23-843) (natural protein)” gave a binding response, percent of max response in controls (with 200nM TPP1653) (% of max response in controls) of 60.
